Measured values as given in the supplement of paper PMC7877785.
± gives the uncertainty stated by the source.

Assay: self-splicing fitness, log relative to wild type (ln ratio); higher = more splicing; Tetrahymena group I intron in knt gene, E. coli kanamycin selection, DiMSum; sequences stand for … in CUCUCU…GGAGGGAAAAGUUAUCAGGCAUGCACCUGGUAGCUAGUCUUUAAACCAAUAGAUUGCAUCGGUUUAAAAGGCAAGACCGUCAAAUUGCGGGAAAGGGGUCAACAGCCGUUCAGUACCAAGUCUCAGGGGAAACUUUGAGAUGGCCUUGCAAAGGGUAUGGUAAUAAGCUGACGGACAUGGUCCUAACCACGCAGCCAAGUCCUAAGUCAACAGAUCUUCUGUUGAUAUGGAUGCAGUUCACAGACUAAAUGUCGGUCGGGGAAGAUGUAUUCUUCUCAUAAGAUAUAGUCGGACCUCUCCUUAAUGGGAGCUAGCGGAUGAAGUGAUGCAACACUGGAGCCGCUGGGAACUAAUUUGUAUGCGAAAGUAUAUUGAUUAGUUUUGGAGUACUCGUGGUCG
Outline: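 A randomised library covering all eight P1ex-region intron nucleotides was built with the intron in the knt kanamycin-resistance gene on pET-22b(+) and held in E. coli BL21(DE3). Cells were grown overnight at 37°C or 30°C on LB agar, with or without 25 μg/mL kanamycin, plus 100 μg/mL carbenicillin, 50 μM IPTG and 0.2% rhamnose, and pooled colonies were amplicon-sequenced on an Illumina HiSeq 2500. DiMSum fitness is the error-weighted combination of wild-type-normalised replicate fold changes, kanamycin versus none.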

| Sequence | self-splicing fitness (ln) (30 °C) | self-splicing fitness (ln) (37 °C) |
| --- | --- | --- |
| GGCCAGCAAUAUUACGAGCA | -0.969 ± 0.077 | -0.145 ± 0.084 |
| GGCCAGCAAUAUUACGAUAC | -2.04 ± 0.11 | -0.501 ± 0.13 |
| GGCCAGCAAUAUUACGAUGU | -2.4 ± 0.092 | -1.92 ± 0.12 |
| GGCCAGCAAUAUUACGCAAG | -3.48 ± 0.25 | -3.15 ± 0.43 |
| GGCCAGCAAUAUUACGCAUG | -2.27 ± 0.12 | -1.3 ± 0.14 |
| GGCCAGCAAUAUUACGCGCU | – | -1.76 ± 0.39 |
| GGCCAGCAAUAUUACGGAAC | -0.685 ± 0.1 | -0.981 ± 0.14 |
| GGCCAGCAAUAUUACGGACG | -0.421 ± 0.072 | 0.71 ± 0.1 |
| GGCCAGCAAUAUUACGGAUU | -0.639 ± 0.056 | -0.524 ± 0.063 |
| GGCCAGCAAUAUUACGUAUU | -2.14 ± 0.11 | -0.199 ± 0.087 |
| GGCCAGCAAUAUUACGUGAG | -2.13 ± 0.08 | -1.49 ± 0.092 |
| GGCCAGCAAUAUUACGUGGU | -3.49 ± 0.21 | -1.76 ± 0.2 |
| GGCCAGCAAUAUUACGUUAC | -2.01 ± 0.12 | -0.532 ± 0.15 |
| GGCCAGCAAUAUUACGUUGA | -2.04 ± 0.12 | -1.27 ± 0.12 |
| GGCGAGCAAUAUUACGACAA | – | -1.05 ± 0.34 |
| GGCGAGCAAUAUUACGACGG | -3.28 ± 0.38 | -3.37 ± 0.47 |
| GGCGAGCAAUAUUACGACUC | -0.185 ± 0.14 | 0.173 ± 0.24 |
| GGCGAGCAAUAUUACGCAGA | -3.15 ± 0.4 | -2.31 ± 0.23 |
| GGCGAGCAAUAUUACGCAGG | -2.43 ± 0.23 | -2.75 ± 0.33 |
| GGCGAGCAAUAUUACGGCAU | -0.523 ± 0.13 | 0.0629 ± 0.15 |
| GGCGAGCAAUAUUACGGGAA | -2.55 ± 0.3 | -1.74 ± 0.43 |
| GGCGAGCAAUAUUACGGGCG | -0.296 ± 0.12 | 0.0537 ± 0.14 |
| GGCGAGCAAUAUUACGGUCA | 0.0811 ± 0.15 | -0.103 ± 0.13 |
| GGCGAGCAAUAUUACGGUCU | -1.89 ± 0.2 | -1.03 ± 0.21 |
| GGCGAGCAAUAUUACGGUGA | -2.82 ± 0.089 | -1.39 ± 0.081 |

| Sequence | self-splicing fitness (ln) (30 °C) | self-splicing fitness (ln) (37 °C) |
| --- | --- | --- |
| GGCGAGCAAUAUUACGGUGC | -2.76 ± 0.16 | -1.86 ± 0.23 |
| GGCGAGCAAUAUUACGUAGU | -1.57 ± 0.13 | -0.422 ± 0.14 |
| GGCGAGCAAUAUUACGUGCC | – | -2.25 ± 0.45 |
| GGCGAGCAAUAUUACGUUCG | -3.74 ± 0.27 | -1.59 ± 0.3 |
| GGCGAGCAAUAUUACGUUUG | -2.31 ± 0.21 | -2.78 ± 0.38 |
| GGCUAGCAAUAUUACGAACU | -0.723 ± 0.25 | 0.433 ± 0.25 |
| GGCUAGCAAUAUUACGAGCG | -1.17 ± 0.14 | -0.288 ± 0.17 |
| GGCUAGCAAUAUUACGAUCU | -0.432 ± 0.1 | 0.129 ± 0.12 |
| GGCUAGCAAUAUUACGCAUG | -1.11 ± 0.11 | -1.04 ± 0.11 |
| GGCUAGCAAUAUUACGCAUU | -0.352 ± 0.074 | 0.553 ± 0.086 |
| GGCUAGCAAUAUUACGCCUG | -3.72 ± 0.29 | -1.95 ± 0.23 |
| GGCUAGCAAUAUUACGCGCG | -0.69 ± 0.14 | 0.174 ± 0.17 |
| GGCUAGCAAUAUUACGCUGC | -3.21 ± 0.19 | -2.65 ± 0.19 |
| GGCUAGCAAUAUUACGGAAG | -1.13 ± 0.11 | -0.386 ± 0.14 |
| GGCUAGCAAUAUUACGGACC | -1.67 ± 0.14 | -0.619 ± 0.2 |
| GGCUAGCAAUAUUACGGACU | -0.601 ± 0.081 | 0.198 ± 0.098 |
| GGCUAGCAAUAUUACGGAGC | -3.22 ± 0.22 | -2.25 ± 0.26 |
| GGCUAGCAAUAUUACGGAGG | -3.21 ± 0.26 | -1.58 ± 0.2 |
| GGCUAGCAAUAUUACGGAUC | -0.815 ± 0.23 | 0.314 ± 0.2 |
| GGCUAGCAAUAUUACGGCAA | 0.218 ± 0.07 | -0.682 ± 0.086 |
| GGCUAGCAAUAUUACGGCAC | 0.203 ± 0.13 | -0.036 ± 0.14 |
| GGCUAGCAAUAUUACGGGUA | -0.679 ± 0.12 | -0.368 ± 0.11 |
| GGCUAGCAAUAUUACGUAGG | -1.96 ± 0.14 | -1.78 ± 0.13 |
| GGCUAGCAAUAUUACGUAUA | -1.27 ± 0.22 | -0.659 ± 0.19 |
| GGCUAGCAAUAUUACGUCCU | -1.68 ± 0.1 | -1.3 ± 0.13 |

| Sequence | self-splicing fitness (ln) (30 °C) | self-splicing fitness (ln) (37 °C) |
| --- | --- | --- |
| GGCUAGCAAUAUUACGUUAG | -3.51 ± 0.32 | -0.919 ± 0.24 |
| GGCUAGCAAUAUUACGUUUA | -0.381 ± 0.15 | -0.882 ± 0.16 |
| GGGAAGCAAUAUUACGAAAU | -3.24 ± 0.19 | -2.26 ± 0.22 |
| GGGAAGCAAUAUUACGACAC | -0.539 ± 0.25 | 0.0269 ± 0.38 |
| GGGAAGCAAUAUUACGAGCU | -0.998 ± 0.29 | -0.3 ± 0.36 |
| GGGAAGCAAUAUUACGAUCA | -0.768 ± 0.33 | -0.0795 ± 0.35 |
| GGGAAGCAAUAUUACGAUGU | -1.02 ± 0.083 | -0.0643 ± 0.1 |
| GGGAAGCAAUAUUACGCCCA | -0.527 ± 0.15 | -0.717 ± 0.21 |
| GGGAAGCAAUAUUACGCGAC | -2.77 ± 0.37 | -1.5 ± 0.32 |
| GGGAAGCAAUAUUACGGAAG | -0.00595 ± 0.22 | -1.47 ± 0.39 |
| GGGAAGCAAUAUUACGGCAC | 0.0244 ± 0.3 | -0.976 ± 0.36 |
| GGGAAGCAAUAUUACGGCCG | -0.164 ± 0.12 | -0.0913 ± 0.15 |
| GGGAAGCAAUAUUACGGUAC | -1.47 ± 0.25 | -1.08 ± 0.27 |
| GGGAAGCAAUAUUACGUCGA | -0.874 ± 0.12 | -0.739 ± 0.13 |
| GGGAAGCAAUAUUACGUCGU | -0.671 ± 0.16 | -0.462 ± 0.16 |
| GGGAAGCAAUAUUACGUGAC | -1.99 ± 0.18 | 0.336 ± 0.21 |
| GGGAAGCAAUAUUACGUGUG | -1.15 ± 0.097 | -1.24 ± 0.13 |
| GGGAAGCAAUAUUACGUUUC | -3.58 ± 0.19 | -2.19 ± 0.29 |
| GGGCAGCAAUAUUACGAACC | -0.749 ± 0.29 | -0.806 ± 0.31 |
| GGGCAGCAAUAUUACGAAGU | -1.95 ± 0.14 | -0.794 ± 0.21 |
| GGGCAGCAAUAUUACGACCU | -1.88 ± 0.28 | -1.26 ± 0.44 |
| GGGCAGCAAUAUUACGAUAG | -3.54 ± 0.2 | -2.43 ± 0.22 |
| GGGCAGCAAUAUUACGCCAG | -2.02 ± 0.1 | -0.684 ± 0.13 |
| GGGCAGCAAUAUUACGCCUC | – | -1.42 ± 0.31 |
| GGGCAGCAAUAUUACGCUCA | -1.09 ± 0.094 | -0.272 ± 0.16 |

| Sequence | self-splicing fitness (ln) (30 °C) | self-splicing fitness (ln) (37 °C) |
| --- | --- | --- |
| GGGCAGCAAUAUUACGCUGU | -2.65 ± 0.29 | -1.21 ± 0.21 |
| GGGCAGCAAUAUUACGGCGG | -1.76 ± 0.12 | -1.99 ± 0.17 |
| GGGCAGCAAUAUUACGGGAA | -2.67 ± 0.31 | -2.7 ± 0.32 |
| GGGCAGCAAUAUUACGGUAA | -1.69 ± 0.27 | -0.663 ± 0.19 |
| GGGCAGCAAUAUUACGGUCG | -0.993 ± 0.076 | -0.0756 ± 0.12 |
| GGGCAGCAAUAUUACGGUGA | -0.844 ± 0.074 | -0.671 ± 0.088 |
| GGGCAGCAAUAUUACGGUUA | -0.537 ± 0.097 | -0.339 ± 0.089 |
| GGGCAGCAAUAUUACGGUUU | -0.465 ± 0.065 | -0.681 ± 0.071 |
| GGGCAGCAAUAUUACGUACC | -1.88 ± 0.31 | -1.39 ± 0.48 |
| GGGCAGCAAUAUUACGUCUU | -0.531 ± 0.081 | 0.0306 ± 0.098 |
| GGGCAGCAAUAUUACGUGGA | -2.81 ± 0.11 | -1.62 ± 0.099 |
| GGGCAGCAAUAUUACGUGGU | -2.88 ± 0.17 | -1.58 ± 0.13 |
| GGGCAGCAAUAUUACGUUGC | -3.77 ± 0.16 | -1.95 ± 0.19 |
| GGGCAGCAAUAUUACGUUUU | -0.77 ± 0.046 | 0.221 ± 0.063 |
| GGGGAGCAAUAUUACGAGCG | -2.37 ± 0.25 | -1.53 ± 0.22 |
| GGGGAGCAAUAUUACGAUAU | -2.95 ± 0.4 | -0.987 ± 0.24 |
| GGGGAGCAAUAUUACGCGAU | – | -0.791 ± 0.24 |
| GGGGAGCAAUAUUACGCGUA | -1.53 ± 0.38 | -1.13 ± 0.3 |
| GGGGAGCAAUAUUACGCGUU | -2.88 ± 0.13 | -1.04 ± 0.14 |
| GGGGAGCAAUAUUACGCUGC | -2.22 ± 0.45 | – |
| GGGGAGCAAUAUUACGGACU | 0.0915 ± 0.28 | -0.621 ± 0.22 |
| GGGGAGCAAUAUUACGGCCA | -0.941 ± 0.2 | 0.555 ± 0.21 |
